According to paper PMC4363726 (Molecules and Cells, 2015):

T1: AGL15-GST (Arabidopsis thaliana, UniProt Q38847 1-268)
T1 sequence: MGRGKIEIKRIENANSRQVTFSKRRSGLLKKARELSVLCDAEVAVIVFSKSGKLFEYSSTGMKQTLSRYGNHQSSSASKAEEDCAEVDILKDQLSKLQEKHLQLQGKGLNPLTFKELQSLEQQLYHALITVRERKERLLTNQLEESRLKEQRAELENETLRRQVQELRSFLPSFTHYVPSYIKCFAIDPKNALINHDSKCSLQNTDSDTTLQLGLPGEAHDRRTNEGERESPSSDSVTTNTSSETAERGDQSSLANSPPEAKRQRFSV

T2: AGL15-His (Arabidopsis thaliana, UniProt Q38847 1-268)
T2 sequence (looked up): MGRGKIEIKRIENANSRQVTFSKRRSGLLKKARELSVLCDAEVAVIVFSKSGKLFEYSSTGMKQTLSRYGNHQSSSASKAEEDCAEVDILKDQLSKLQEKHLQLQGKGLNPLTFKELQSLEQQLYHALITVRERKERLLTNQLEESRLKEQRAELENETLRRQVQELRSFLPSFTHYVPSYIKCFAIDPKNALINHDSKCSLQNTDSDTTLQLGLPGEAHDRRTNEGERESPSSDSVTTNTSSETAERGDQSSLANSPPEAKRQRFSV

B1: miR156a CArG IV (dsDNA)
DNA 1: CAAGTTCATTGCCATTTTTAGGTCTCTCTA
DNA 2: TAGAGAGACCTAAAAATGGCAATGAACTTG
B2: GST-AGL18 (natural protein, Arabidopsis thaliana, UniProt Q9M2K8 1-256, looked up)
chain: MGRGRIEIKKIENINSRQVTFSKRRNGLIKKAKELSILCDAEVALIIFSSTGKIYDFSSVCMEQILSRYGYTTASTEHKQQREHQLLICASHGNEAVLRNDDSMKGELERLQLAIERLKGKELEGMSFPDLISLENQLNESLHSVKDQKTQILLNQIERSRIQEKKALEENQILRKQVEMLGRGSGPKVLNERPQDSSPEADPESSSSEEDENDNEEHHSDTSLQLGLSSTGYCTKRKKPKIELVCDNSGSQVASD
B3: miR156c CArG I (dsDNA)
DNA 1: AAAAAAATTGCTATTTTTTGAAAATGTTAC
DNA 2: GTAACATTTTCAAAAAATAGCAATTTTTTT
B4: miR156c CArG III (dsDNA)
DNA 1: TTGTCGTTGCCGTTTATAGGTTATGAGATT
DNA 2: AATCTCATAACCTATAAACGGCAACGACAA
B5: miR156a CArG III (dsDNA)
DNA 1: ATAATAATAATCTAATTAAAGGAGATGAGA
DNA 2: TCTCATCTCCTTTAATTAGATTATTATTAT
B6: miR156c NC (dsDNA)
DNA 1: TTCAGACATCTGTCCCATTGCATGTAAGAG
DNA 2: CTCTTACATGCAATGGGACAGATGTCTGAA
B7: miR156a CArG V (dsDNA)
DNA 1: CTTTTTTTTGCTTTTTATGGTTATGTTTTT
DNA 2: AAAAACATAACCATAAAAAGCAAAAAAAAG
B8: miR156a CArG II (dsDNA)
DNA 1: ATATATCTTCCATAATTTTGCAAGTCTTTA
DNA 2: TAAAGACTTGCAAAATTATGGAAGATATAT
B9: miR156c CArG II (dsDNA)
DNA 1: TGAATTAATTCTTAAAATTGTGAAATAATT
DNA 2: AATTATTTCACAATTTTAAGAATTAATTCA
B10: miR156a NC (dsDNA)
DNA 1: TAAGAGAGATAAAGAAAGCGACAAGAGCCA
DNA 2: TGGCTCTTGTCGCTTTCTTTATCTCTCTTA
B11: miR156a CArG I (dsDNA)
DNA 1: TGGTGAAAAACAATTAATAGAAAATTAATT
DNA 2: AATTAATTTTCTATTAATTGTTTTTCACCA

What was measured:
[1] = target: T1, AGL15-GST; assay: competition
[2] = target: T2, AGL15-His; assay: pull-down
[3] = target: T1, AGL15-GST; assay: EMSA

Row | Binder | binding result [3] | further results
1 | B1 |  | binding result [1]: binds
2 | B2 |  | binding result [2]: binds
3 | B3 | no binding | 
4 | B4 |  | binding result [1]: binds
5 | B5 | no binding | 
6 | B6 | no binding | 
7 | B7 |  | binding result [1]: binds
8 | B8 | no binding | 
9 | B9 | no binding | 
10 | B10 | no binding | 
11 | B11 | no binding | 
